Laboratory results: US20260242759A1, “GQ/11 Protein Peptidomimetics” (Vrije Universiteit Brussel, priority 2022, published 2026)
Positions of bridges follow the written chain, without caps; N, C: chain ends. Non-standard residues stand in square brackets, D forms with d. Residues, ends and D or L forms follow the SMILES beside them. Triazole bridges read from a SMILES are 1,4-linked. Lys(N3) = [N-]=[N+]=NCCCC[C@H](N)C(=O)O; Cha = N[C@@H](CC1CCCCC1)C(=O)O; Pra = C#CC[C@H](N)C(=O)O

T1: full-length human muscarinic 1 receptor with a FLAG tag at the N-terminus (human, UniProt P11229 1-460)
T1 sequence: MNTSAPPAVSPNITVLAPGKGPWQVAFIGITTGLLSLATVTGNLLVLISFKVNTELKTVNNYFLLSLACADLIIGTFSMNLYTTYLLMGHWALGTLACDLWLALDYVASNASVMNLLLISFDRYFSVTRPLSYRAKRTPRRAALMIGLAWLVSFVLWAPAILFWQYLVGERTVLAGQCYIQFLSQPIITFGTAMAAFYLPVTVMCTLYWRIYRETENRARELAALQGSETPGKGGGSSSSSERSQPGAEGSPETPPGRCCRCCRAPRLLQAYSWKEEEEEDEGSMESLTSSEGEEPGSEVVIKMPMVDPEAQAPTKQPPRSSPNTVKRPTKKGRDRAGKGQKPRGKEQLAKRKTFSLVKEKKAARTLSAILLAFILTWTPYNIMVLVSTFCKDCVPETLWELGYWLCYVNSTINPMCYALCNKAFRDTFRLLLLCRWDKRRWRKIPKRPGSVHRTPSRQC

B1: SBL-GQ-04 (peptide)
peptide: Ac-KKKFAAVKDTILQLNLKEYN[Cha]V-OH
SMILES: CC[C@H](C)[C@H](NC(=O)[C@@H](NC(=O)[C@H](CC(=O)O)NC(=O)[C@H](CCCCN)NC(=O)[C@@H](NC(=O)[C@H](C)NC(=O)[C@H](C)NC(=O)[C@H](Cc1ccccc1)NC(=O)[C@H](CCCCN)NC(=O)[C@H](CCCCN)NC(=O)[C@H](CCCCN)NC(C)=O)C(C)C)[C@@H](C)O)C(=O)N[C@@H](CC(C)C)C(=O)N[C@@H](CCC(N)=O)C(=O)N[C@@H](CC(C)C)C(=O)N[C@@H](CC(N)=O)C(=O)N[C@@H](CC(C)C)C(=O)N[C@@H](CCCCN)C(=O)N[C@@H](CCC(=O)O)C(=O)N[C@@H](Cc1ccc(O)cc1)C(=O)N[C@@H](CC(N)=O)C(=O)N[C@@H](CC1CCCCC1)C(=O)N[C@H](C(=O)O)C(C)C

What was measured:
[1] = test system: HEK293 cells overexpressing the ghrelin receptor; test: Fluorescence microscopy of cell permeability; format: cell-based, human; settings: 5 μM, 3 h 45 min, 37° C.
Protocol: To visualise cell-penetration of the peptides, HEK293 1C8 cells were seeded in 12-well plates, covered with a coverslip, at 120,000 cells/well. After overnight incubation (37° C., 5% CO2), cells were washed with PBS and treated with the fluorescently labeled peptides for 2 h45. Next, BG-fluorescein was added to the mixture, for Snap tag labeling of the cell-surface GHSR. After incubation of 1 h the cells were washed four times with PBS. Cells were then fixed using 4% paraformaldehyde in PBS for 5 min and washed two times with PBS. Finally, Hoechst was diluted 1/1000 in PBS, added to the fixed cells during 10 min, and washed thrice with PBS.
The cells for permeabilization were first incubated with BG-fluorescein during 1 h, followed by four times washing with PBS. The cells were then fixed with 4% paraformaldehyde in PBS for 5 min washed twice. Afterwards, the cells were permeabilized with Triton 0.1% in PBS during 5 min and washed thrice. Finally, the cells were incubated for 3 h 45 with the peptide and washed three times before Hoechst was added for 10 min.
The SulfoCy5-labeled Gq/11 peptidomimetics of Example 5 were also analyzed by fluorescence microscopy to investigate their cell membrane permeability. HEK293 cells overexpressing the ghrelin receptor were seeded overnight on microscope slides. The cells were incubated with 5 μM of SulfoCy5-labeled Gq/11 peptidomimetics for 3 h 45 min at 37° C., followed by Hoechst staining for visualizing the nucleus. The cell membrane was visualized by staining the cell surface ghrelin receptors with fluorescein.

MTT cytotoxicity assay = format: cell-based, human; settings: human, HEK293 1C8 cells, 3 h 45 min, read-out: cell viability
Protocol: (§1) Cells were washed two times with PBS and incubated with 3-(4,5-dimethylthiazol-2-yl)-2,5-diphenyltetrazolium bromide (MTT) during 3 h, at 37° C. Afterwards, cells were washed once with PBS and then incubated for 10 min with DMSO. Plates were analysed with a Tecan Spark 10 M microplate reader.
(§2) An MTT assay was used to assess the cytotoxicity of the non-fluorescent Gq/11 peptidomimetics of Example 5. An MTT assay is a colorimetric test that evaluates the cell metabolic activity and reflects the cell viability.

HEK293 1C8 cells = test: MTT cytotoxicity assay; format: cell-based, human; settings: varying concentrations up to 40 μM, 3 h 45 min
Protocol: as §1, §2

[2] = target: purified bimane labeled ghrelin receptor (human, cysmin mutant, in lipidated nanodiscs) (human) (UniProt Q92847); test: cell-based or functional assay
[3] = target: T1, full-length human muscarinic 1 receptor …; test: cell-based or functional assay
[4] = target: T2, ghrelin receptor overexpressed on HEK293 cells (UniProt Q92847 1-366, limits assumed); test: cell-based or functional assay
[5] = target: T2, ghrelin receptor overexpressed on …; test: cell-based or functional assay; remark: listed apart in the source

Sequence of purified bimane labeled ghrelin receptor (human, cysmin mutant, in lipidated nanodiscs) (human) (Q92847 other isoform, or with tags, fused parts or gaps mutant): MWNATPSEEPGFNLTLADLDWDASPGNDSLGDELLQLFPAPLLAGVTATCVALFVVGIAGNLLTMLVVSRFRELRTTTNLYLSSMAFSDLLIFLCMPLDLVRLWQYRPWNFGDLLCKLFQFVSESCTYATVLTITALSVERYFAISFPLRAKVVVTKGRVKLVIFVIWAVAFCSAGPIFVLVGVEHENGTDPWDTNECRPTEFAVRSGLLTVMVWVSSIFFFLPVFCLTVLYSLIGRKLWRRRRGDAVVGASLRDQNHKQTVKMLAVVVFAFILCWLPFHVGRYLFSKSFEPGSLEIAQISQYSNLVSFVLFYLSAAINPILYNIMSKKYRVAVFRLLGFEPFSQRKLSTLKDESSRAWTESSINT
T2 sequence (Q92847 whole entry): as the sequence (Q92847 other isoform, or with tags, fused parts or gaps mutant) above, with S146C, S304C counted along it

| Molecule | SulfoCy5-labeled peptide observed inside cells [1] | bimane maximum emission wavelength, with agonist JMV1843 [2] [nm] | IC50 (µM) of the agonist acetylcholine chloride for the M1 receptor in the presence of the peptidomimetic, RLA [3] [µM] | Shift (IC50 ratio without/with peptidomimetic), RLA [3] | other results |
| --- | --- | --- | --- | --- | --- |
| H-C(SulfoCy5)-Ahx-KKKFAc[PraVKDAzk]ILQLNLKEYNLV-OH [SBL-GQ-21] | very little or no | – | – | – | – |
| CC[C@H](C)[C@H](NC(=O)[C@@H]1CCCCn2cc(nn2)C[C@H](NC(=O)[C@H](C)NC(=O)[C@H](Cc2ccccc2)NC(=O)[C@H](CCCNC(=N)N)NC(=O)[C@H](CCCNC(=N)N)NC(=O)[C@H](Cc2c[nH]c3ccccc23)NC(=O)[C@H](CCCNC(=N)N)NC(=O)[C@H](CCCNC(=N)N)NC(=O)[C@H](Cc2c[nH]c3ccccc23)NC(=O)[C@H](Cc2c[nH]c3ccccc23)NC(=O)[C@H](CCCNC(=N)N)NC(=O)[C@@H](N)CCCNC(=N)N)C(=O)N[C@@H](C(C)C)C(=O)N[C@@H](CCCCN)C(=O)N[C@@H](CC(=O)O)C(=O)N1)C(=O)N[C@@H](CC(C)C)C(=O)N[C@@H](CCC(N)=O)C(=O)N[C@@H](CC(C)C)C(=O)N[C@@H](CC(N)=O)C(=O)N[C@@H](CC(C)C)C(=O)N[C@@H](CCCCN)C(=O)N[C@@H](CCC(=O)O)C(=O)N[C@@H](Cc1ccc(O)cc1)C(=O)N[C@@H](CC(N)=O)C(=O)N[C@@H](CC(C)C)C(=O)N[C@H](C(=O)O)C(C)C [SBL-GQ-25] (H-RRWWRRWRRFA[Pra]VKD[Lys(N3)]ILQLNLKEYNLV-OH; triazole 12-16) | – | – | – | – | viability at 5 µM (MTT cytotoxicity assay): ~90%; viability at 10 µM (MTT cytotoxicity assay): ~85%; viability at 40 µM (MTT cytotoxicity assay): ~50% |
| CC[C@H](C)[C@H](NC(=O)[C@@H]1CCCCn2cc(nn2)C[C@H](NC(=O)[C@H](C)NC(=O)[C@H](Cc2ccccc2)NC(=O)[C@H](CCCNC(=N)N)NC(=O)[C@H](CCCNC(=N)N)NC(=O)[C@H](CCCNC(=N)N)NC(=O)[C@H](CCCNC(=N)N)NC(=O)[C@H](CCCNC(=N)N)NC(=O)[C@H](CCCNC(=N)N)NC(=O)[C@H](CCCNC(=N)N)NC(=O)[C@@H](N)CCCNC(=N)N)C(=O)N[C@@H](C(C)C)C(=O)N[C@@H](CCCCN)C(=O)N[C@@H](CC(=O)O)C(=O)N1)C(=O)N[C@@H](CC(C)C)C(=O)N[C@@H](CCC(N)=O)C(=O)N[C@@H](CC(C)C)C(=O)N[C@@H](CC(N)=O)C(=O)N[C@@H](CC(C)C)C(=O)N[C@@H](CCCCN)C(=O)N[C@@H](CCC(=O)O)C(=O)N[C@@H](Cc1ccc(O)cc1)C(=O)N[C@@H](CC(N)=O)C(=O)N[C@@H](CC(C)C)C(=O)N[C@H](C(=O)O)C(C)C [SBL-GQ-15] (H-RRRRRRRRFA[Pra]VKD[Lys(N3)]ILQLNLKEYNLV-OH; triazole 11-15) | – | – | – | – | viability at 5 µM (MTT cytotoxicity assay): ~90%; viability at 10 µM (MTT cytotoxicity assay): ~70%; viability at 40 µM (MTT cytotoxicity assay): ~50% |
| H-C(SulfoCy5)-Ahx-RRWWRRWRRFAc[PraVKDAzk]ILQLNLKEYNLV-OH [SBL-GQ-24] | entered cells | – | – | – | – |
| dynorphin [reference compound] | very little or no | – | – | – | – |
| CC[C@H](C)[C@H](NC(=O)[C@@H]1CCCCn2cc(nn2)C[C@H](NC(=O)[C@H](C)NC(=O)[C@H](Cc2ccccc2)NC(=O)[C@H](CCCCN)NC(=O)[C@H](CCCCN)NC(=O)[C@@H](N)CCCCN)C(=O)N[C@@H](C(C)C)C(=O)N[C@@H](CCCCN)C(=O)N[C@@H](CC(=O)O)C(=O)N1)C(=O)N[C@@H](CC(C)C)C(=O)N[C@@H](CCC(N)=O)C(=O)N[C@@H](CC(C)C)C(=O)N[C@@H](CC(N)=O)C(=O)N[C@@H](CC(C)C)C(=O)N[C@@H](CCCCN)C(=O)N[C@@H](CCC(=O)O)C(=O)N[C@@H](Cc1ccc(O)cc1)C(=O)N[C@@H](CC(N)=O)C(=O)N[C@@H](CC(C)C)C(=O)N[C@H](C(=O)O)C(C)C [SBL-GQ-13] (H-KKKFA[Pra]VKD[Lys(N3)]ILQLNLKEYNLV-OH; triazole 6-10) | – | – | – | – | cytotoxicity / viability (HEK293 1C8 cells): No cytotoxicity |
| H-C(SulfoCy5)-Ahx-RRRRRRRRFAc[PraVKDAzk]ILQLNLKEYNLV-OH [SBL-GQ-23] | entered cells | – | – | – | – |
| H-C(SulfoCy5)-Ahx-RRRRFAc[PraVKDAzk]ILQLNLKEYNLV-OH [SBL-GQ-22] | very little or no | – | – | – | – |
| CC[C@H](C)[C@H](NC(=O)[C@@H]1CCCCn2cc(nn2)C[C@H](NC(=O)[C@H](C)NC(=O)[C@H](Cc2ccccc2)NC(=O)[C@H](CCCNC(=N)N)NC(=O)[C@H](CCCNC(=N)N)NC(=O)[C@H](CCCNC(=N)N)NC(=O)[C@@H](N)CCCNC(=N)N)C(=O)N[C@@H](C(C)C)C(=O)N[C@@H](CCCCN)C(=O)N[C@@H](CC(=O)O)C(=O)N1)C(=O)N[C@@H](CC(C)C)C(=O)N[C@@H](CCC(N)=O)C(=O)N[C@@H](CC(C)C)C(=O)N[C@@H](CC(N)=O)C(=O)N[C@@H](CC(C)C)C(=O)N[C@@H](CCCCN)C(=O)N[C@@H](CCC(=O)O)C(=O)N[C@@H](Cc1ccc(O)cc1)C(=O)N[C@@H](CC(N)=O)C(=O)N[C@@H](CC(C)C)C(=O)N[C@H](C(=O)O)C(C)C [SBL-GQ-14] (H-RRRRFA[Pra]VKD[Lys(N3)]ILQLNLKEYNLV-OH; triazole 7-11) | – | – | – | – | cytotoxicity / viability (HEK293 1C8 cells): only a slight decrease in viability |
| purified Gαqβ1γ2 heterotrimer | – | 480 | – | – | – |
| Ac-KKKFA[Pra]VKD[Lys(N3)]ILQLNLKEYN[Cha]V-OH (triazole 6-10) [SBL-GQ-06] | – | 478 | 54.4 | 8 | – |
| B1 | – | – | 213 | 4 | EC50 (M) of the MK0677 agonist, IP-One Gq assay, peptidomimetic at 10 µM, n = 1 [4]: 4.42e-10 M; EC50 (M) of the MK0677 agonist, IP-One Gq assay, peptidomimetic at 10 µM, n = 2 [4]: 9.46e-11 M; EC50 (M) of the MK0677 agonist, IP-One Gq assay, peptidomimetic at 10 µM, n = 3 [4]: 9.87e-11 M; EC50 (M) of the MK0677 agonist, IP-One Gq assay, SBL-GQ-04 5 µM, n = 1 [5]: 3.18e-10 M; EC50 (M) of the MK0677 agonist, IP-One Gq assay, SBL-GQ-04 5 µM, n = 2 [5]: 1.41e-10 M |
| Ac-KKKFN[Pra]CKD[Lys(N3)]ILQMNLREYNLV-OH (triazole 6-10) [SBL-GQ-11] | – | 478 | 57.7 | 7 | – |
| Ac-KKKFN[Pra]CKD[Lys(N3)]ILQMNLREYN[Cha]V-OH (triazole 6-10) [SBL-GQ-12] | – | 478 | 13.7 | 34 | – |
| Ac-KKKFA[Pra]VKD[Lys(N3)]ILQLNLKEYNLV-OH (triazole 6-10) [SBL-GQ-05] | – | 478 | 330 | 1 | EC50 (M) of the MK0677 agonist, IP-One Gq assay, peptidomimetic at 10 µM, n = 1 [4]: 9.99e-10 M; EC50 (M) of the MK0677 agonist, IP-One Gq assay, peptidomimetic at 10 µM, n = 2 [4]: 1.53e-10 M; EC50 (M) of the MK0677 agonist, IP-One Gq assay, peptidomimetic at 10 µM, n = 3 [4]: 1.1e-10 M; bimane emission as percent of the effect of the Gq protein, highest peptide concentrations [2]: 90% |
